Assay results published in US20210388087A1 (Chugai, published 2021).

B1: H183/L072 VL H27dD (antibody, name in Kabat numbering, V domains shown)
VH: QVQLVESGGGLVQPGRSLRLSCAASGFTFSNAWMHWVRQAPGKGLEWVAQIKDKGNAYAAYYAPSVKGRFTISRDDSKNSIYLQMNSLKTEDTAVYYCHYVHYASASTVLPAFGVDAWGQGTTVTVSS
VL: DIVMTQSPLSLPVTPGEPASISCQASQELVDMNRNTYLHWYQQKPGQAPRLLIYKVSNRFPGVPDRFSGSGSGTDFTLKISRVEAEDVGVYYCAQGTSVPFTFGQGTKLEIK
notes: Dual-Ig
B2: H183/L072 VL H27dE (antibody, name in Kabat numbering, V domains shown)
VH: QVQLVESGGGLVQPGRSLRLSCAASGFTFSNAWMHWVRQAPGKGLEWVAQIKDKGNAYAAYYAPSVKGRFTISRDDSKNSIYLQMNSLKTEDTAVYYCHYVHYASASTVLPAFGVDAWGQGTTVTVSS
VL: DIVMTQSPLSLPVTPGEPASISCQASQELVEMNRNTYLHWYQQKPGQAPRLLIYKVSNRFPGVPDRFSGSGSGTDFTLKISRVEAEDVGVYYCAQGTSVPFTFGQGTKLEIK
notes: Dual-Ig
B3: H183/L072 VL H27dF (antibody, name in Kabat numbering, V domains shown)
VH: QVQLVESGGGLVQPGRSLRLSCAASGFTFSNAWMHWVRQAPGKGLEWVAQIKDKGNAYAAYYAPSVKGRFTISRDDSKNSIYLQMNSLKTEDTAVYYCHYVHYASASTVLPAFGVDAWGQGTTVTVSS
VL: DIVMTQSPLSLPVTPGEPASISCQASQELVFMNRNTYLHWYQQKPGQAPRLLIYKVSNRFPGVPDRFSGSGSGTDFTLKISRVEAEDVGVYYCAQGTSVPFTFGQGTKLEIK
notes: Dual-Ig
B4: H183/L072 VL H27dG (antibody, name in Kabat numbering, V domains shown)
VH: QVQLVESGGGLVQPGRSLRLSCAASGFTFSNAWMHWVRQAPGKGLEWVAQIKDKGNAYAAYYAPSVKGRFTISRDDSKNSIYLQMNSLKTEDTAVYYCHYVHYASASTVLPAFGVDAWGQGTTVTVSS
VL: DIVMTQSPLSLPVTPGEPASISCQASQELVGMNRNTYLHWYQQKPGQAPRLLIYKVSNRFPGVPDRFSGSGSGTDFTLKISRVEAEDVGVYYCAQGTSVPFTFGQGTKLEIK
notes: Dual-Ig
B5: H183/L072 VL H27dI (antibody, name in Kabat numbering, V domains shown)
VH: QVQLVESGGGLVQPGRSLRLSCAASGFTFSNAWMHWVRQAPGKGLEWVAQIKDKGNAYAAYYAPSVKGRFTISRDDSKNSIYLQMNSLKTEDTAVYYCHYVHYASASTVLPAFGVDAWGQGTTVTVSS
VL: DIVMTQSPLSLPVTPGEPASISCQASQELVIMNRNTYLHWYQQKPGQAPRLLIYKVSNRFPGVPDRFSGSGSGTDFTLKISRVEAEDVGVYYCAQGTSVPFTFGQGTKLEIK
notes: Dual-Ig
B6: H183/L072 VL H27dK (antibody, name in Kabat numbering, V domains shown)
VH: QVQLVESGGGLVQPGRSLRLSCAASGFTFSNAWMHWVRQAPGKGLEWVAQIKDKGNAYAAYYAPSVKGRFTISRDDSKNSIYLQMNSLKTEDTAVYYCHYVHYASASTVLPAFGVDAWGQGTTVTVSS
VL: DIVMTQSPLSLPVTPGEPASISCQASQELVKMNRNTYLHWYQQKPGQAPRLLIYKVSNRFPGVPDRFSGSGSGTDFTLKISRVEAEDVGVYYCAQGTSVPFTFGQGTKLEIK
notes: Dual-Ig
B7: H183/L072 VL H27dL (antibody, name in Kabat numbering, V domains shown)
VH: QVQLVESGGGLVQPGRSLRLSCAASGFTFSNAWMHWVRQAPGKGLEWVAQIKDKGNAYAAYYAPSVKGRFTISRDDSKNSIYLQMNSLKTEDTAVYYCHYVHYASASTVLPAFGVDAWGQGTTVTVSS
VL: DIVMTQSPLSLPVTPGEPASISCQASQELVLMNRNTYLHWYQQKPGQAPRLLIYKVSNRFPGVPDRFSGSGSGTDFTLKISRVEAEDVGVYYCAQGTSVPFTFGQGTKLEIK
notes: Dual-Ig
B8: H183/L072 VL H27dM (antibody, name in Kabat numbering, V domains shown)
VH: QVQLVESGGGLVQPGRSLRLSCAASGFTFSNAWMHWVRQAPGKGLEWVAQIKDKGNAYAAYYAPSVKGRFTISRDDSKNSIYLQMNSLKTEDTAVYYCHYVHYASASTVLPAFGVDAWGQGTTVTVSS
VL: DIVMTQSPLSLPVTPGEPASISCQASQELVMMNRNTYLHWYQQKPGQAPRLLIYKVSNRFPGVPDRFSGSGSGTDFTLKISRVEAEDVGVYYCAQGTSVPFTFGQGTKLEIK
notes: Dual-Ig
B9: H183/L072 VL H27dN (antibody, name in Kabat numbering, V domains shown)
VH: QVQLVESGGGLVQPGRSLRLSCAASGFTFSNAWMHWVRQAPGKGLEWVAQIKDKGNAYAAYYAPSVKGRFTISRDDSKNSIYLQMNSLKTEDTAVYYCHYVHYASASTVLPAFGVDAWGQGTTVTVSS
VL: DIVMTQSPLSLPVTPGEPASISCQASQELVNMNRNTYLHWYQQKPGQAPRLLIYKVSNRFPGVPDRFSGSGSGTDFTLKISRVEAEDVGVYYCAQGTSVPFTFGQGTKLEIK
notes: Dual-Ig
B10: H183/L072 VL H27dP (antibody, name in Kabat numbering, V domains shown)
VH: QVQLVESGGGLVQPGRSLRLSCAASGFTFSNAWMHWVRQAPGKGLEWVAQIKDKGNAYAAYYAPSVKGRFTISRDDSKNSIYLQMNSLKTEDTAVYYCHYVHYASASTVLPAFGVDAWGQGTTVTVSS
VL: DIVMTQSPLSLPVTPGEPASISCQASQELVPMNRNTYLHWYQQKPGQAPRLLIYKVSNRFPGVPDRFSGSGSGTDFTLKISRVEAEDVGVYYCAQGTSVPFTFGQGTKLEIK
notes: Dual-Ig
B11: H183/L072 VL H27dQ (antibody, name in Kabat numbering, V domains shown)
VH: QVQLVESGGGLVQPGRSLRLSCAASGFTFSNAWMHWVRQAPGKGLEWVAQIKDKGNAYAAYYAPSVKGRFTISRDDSKNSIYLQMNSLKTEDTAVYYCHYVHYASASTVLPAFGVDAWGQGTTVTVSS
VL: DIVMTQSPLSLPVTPGEPASISCQASQELVQMNRNTYLHWYQQKPGQAPRLLIYKVSNRFPGVPDRFSGSGSGTDFTLKISRVEAEDVGVYYCAQGTSVPFTFGQGTKLEIK
notes: Dual-Ig
B12: H183/L072 VL H27dR (antibody, name in Kabat numbering, V domains shown)
VH: QVQLVESGGGLVQPGRSLRLSCAASGFTFSNAWMHWVRQAPGKGLEWVAQIKDKGNAYAAYYAPSVKGRFTISRDDSKNSIYLQMNSLKTEDTAVYYCHYVHYASASTVLPAFGVDAWGQGTTVTVSS
VL: DIVMTQSPLSLPVTPGEPASISCQASQELVRMNRNTYLHWYQQKPGQAPRLLIYKVSNRFPGVPDRFSGSGSGTDFTLKISRVEAEDVGVYYCAQGTSVPFTFGQGTKLEIK
notes: Dual-Ig
B13: H183/L072 VL H27dS (antibody, name in Kabat numbering, V domains shown)
VH: QVQLVESGGGLVQPGRSLRLSCAASGFTFSNAWMHWVRQAPGKGLEWVAQIKDKGNAYAAYYAPSVKGRFTISRDDSKNSIYLQMNSLKTEDTAVYYCHYVHYASASTVLPAFGVDAWGQGTTVTVSS
VL: DIVMTQSPLSLPVTPGEPASISCQASQELVSMNRNTYLHWYQQKPGQAPRLLIYKVSNRFPGVPDRFSGSGSGTDFTLKISRVEAEDVGVYYCAQGTSVPFTFGQGTKLEIK
notes: Dual-Ig
B14: H183/L072 VL H27dT (antibody, name in Kabat numbering, V domains shown)
VH: QVQLVESGGGLVQPGRSLRLSCAASGFTFSNAWMHWVRQAPGKGLEWVAQIKDKGNAYAAYYAPSVKGRFTISRDDSKNSIYLQMNSLKTEDTAVYYCHYVHYASASTVLPAFGVDAWGQGTTVTVSS
VL: DIVMTQSPLSLPVTPGEPASISCQASQELVTMNRNTYLHWYQQKPGQAPRLLIYKVSNRFPGVPDRFSGSGSGTDFTLKISRVEAEDVGVYYCAQGTSVPFTFGQGTKLEIK
notes: Dual-Ig
B15: H183/L072 VL H27dV (antibody, name in Kabat numbering, V domains shown)
VH: QVQLVESGGGLVQPGRSLRLSCAASGFTFSNAWMHWVRQAPGKGLEWVAQIKDKGNAYAAYYAPSVKGRFTISRDDSKNSIYLQMNSLKTEDTAVYYCHYVHYASASTVLPAFGVDAWGQGTTVTVSS
VL: DIVMTQSPLSLPVTPGEPASISCQASQELVVMNRNTYLHWYQQKPGQAPRLLIYKVSNRFPGVPDRFSGSGSGTDFTLKISRVEAEDVGVYYCAQGTSVPFTFGQGTKLEIK
notes: Dual-Ig
B16: H183/L072 VL H27dW (antibody, name in Kabat numbering, V domains shown)
VH: QVQLVESGGGLVQPGRSLRLSCAASGFTFSNAWMHWVRQAPGKGLEWVAQIKDKGNAYAAYYAPSVKGRFTISRDDSKNSIYLQMNSLKTEDTAVYYCHYVHYASASTVLPAFGVDAWGQGTTVTVSS
VL: DIVMTQSPLSLPVTPGEPASISCQASQELVWMNRNTYLHWYQQKPGQAPRLLIYKVSNRFPGVPDRFSGSGSGTDFTLKISRVEAEDVGVYYCAQGTSVPFTFGQGTKLEIK
notes: Dual-Ig
B17: H183/L072 VL H27dY (antibody, name in Kabat numbering, V domains shown)
VH: QVQLVESGGGLVQPGRSLRLSCAASGFTFSNAWMHWVRQAPGKGLEWVAQIKDKGNAYAAYYAPSVKGRFTISRDDSKNSIYLQMNSLKTEDTAVYYCHYVHYASASTVLPAFGVDAWGQGTTVTVSS
VL: DIVMTQSPLSLPVTPGEPASISCQASQELVYMNRNTYLHWYQQKPGQAPRLLIYKVSNRFPGVPDRFSGSGSGTDFTLKISRVEAEDVGVYYCAQGTSVPFTFGQGTKLEIK
notes: Dual-Ig
B18: H183/L072 VL H34I (antibody, name in Kabat numbering, V domains shown)
VH: QVQLVESGGGLVQPGRSLRLSCAASGFTFSNAWMHWVRQAPGKGLEWVAQIKDKGNAYAAYYAPSVKGRFTISRDDSKNSIYLQMNSLKTEDTAVYYCHYVHYASASTVLPAFGVDAWGQGTTVTVSS
VL: DIVMTQSPLSLPVTPGEPASISCQASQELVHMNRNTYLIWYQQKPGQAPRLLIYKVSNRFPGVPDRFSGSGSGTDFTLKISRVEAEDVGVYYCAQGTSVPFTFGQGTKLEIK
notes: Dual-Ig
B19: H183/L072 VL H34L (antibody, name in Kabat numbering, V domains shown)
VH: QVQLVESGGGLVQPGRSLRLSCAASGFTFSNAWMHWVRQAPGKGLEWVAQIKDKGNAYAAYYAPSVKGRFTISRDDSKNSIYLQMNSLKTEDTAVYYCHYVHYASASTVLPAFGVDAWGQGTTVTVSS
VL: DIVMTQSPLSLPVTPGEPASISCQASQELVHMNRNTYLLWYQQKPGQAPRLLIYKVSNRFPGVPDRFSGSGSGTDFTLKISRVEAEDVGVYYCAQGTSVPFTFGQGTKLEIK
notes: Dual-Ig
B20: H183/L072 VL H34M (antibody, name in Kabat numbering, V domains shown)
VH: QVQLVESGGGLVQPGRSLRLSCAASGFTFSNAWMHWVRQAPGKGLEWVAQIKDKGNAYAAYYAPSVKGRFTISRDDSKNSIYLQMNSLKTEDTAVYYCHYVHYASASTVLPAFGVDAWGQGTTVTVSS
VL: DIVMTQSPLSLPVTPGEPASISCQASQELVHMNRNTYLMWYQQKPGQAPRLLIYKVSNRFPGVPDRFSGSGSGTDFTLKISRVEAEDVGVYYCAQGTSVPFTFGQGTKLEIK
notes: Dual-Ig
B21: H183/L072 VL H34P (antibody, name in Kabat numbering, V domains shown)
VH: QVQLVESGGGLVQPGRSLRLSCAASGFTFSNAWMHWVRQAPGKGLEWVAQIKDKGNAYAAYYAPSVKGRFTISRDDSKNSIYLQMNSLKTEDTAVYYCHYVHYASASTVLPAFGVDAWGQGTTVTVSS
VL: DIVMTQSPLSLPVTPGEPASISCQASQELVHMNRNTYLPWYQQKPGQAPRLLIYKVSNRFPGVPDRFSGSGSGTDFTLKISRVEAEDVGVYYCAQGTSVPFTFGQGTKLEIK
notes: Dual-Ig

molecular target: T1, Human CD137 ECD (human); test: Biacore SPR, vs parent H183/L072
T1 construct: entry includes C-terminal His-tag and biotin acceptor peptide; also called human CD137 extracellular domain; 4-1BB
T1 sequence (chain, as listed by the source limits assumed): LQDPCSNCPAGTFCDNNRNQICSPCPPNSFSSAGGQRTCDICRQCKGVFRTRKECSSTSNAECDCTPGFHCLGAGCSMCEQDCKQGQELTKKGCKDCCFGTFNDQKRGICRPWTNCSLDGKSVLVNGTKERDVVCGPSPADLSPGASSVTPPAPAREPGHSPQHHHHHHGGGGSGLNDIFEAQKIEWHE

In order of falling “fold change of affinity” value:
1. B5  0.8 fold
2. B10  0.8 fold
3. B15  0.7 fold
4. B2  0.6 fold
5. B4  0.6 fold
6. B6  0.6 fold
7. B7  0.6 fold
8. B8  0.6 fold
9. B11  0.6 fold
10. B12  0.6 fold
11. B13  0.6 fold
12. B14  0.6 fold
13. B9  0.5 fold
14. B16  0.5 fold
15. B17  0.5 fold
16. B3  0.4 fold
17. B1  0.3 fold
18. B19  0.1 fold
19. B18  0 fold
20. B20  0 fold
21. B21  0 fold
